# Test results: the supplement of paper PMC7125110
# ± gives the standard error. For some assays here: Variants at the floor of the assay were thinned out.
# B1: glmS ribozyme (parent)
# chain: AUAAAAGCGCCAGAACUACAGAAAUGUAGUUGACGAGGAGGAGGUUUAUCGAAUUUUCGGCGGAUGCCUCCAAA
# Assays:
# Settings in all cases: with glucosamine-6-phosphate
# [1] = variants of: B1; assay: self-cleavage kobs at 40 uM GlcN6P; higher = faster cleavage; RNA array
# Summary of the method: (§1)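 Glucosamine-6-phosphate, from 40 μM to 10 mM in HEPES/KCl/Mg(OAc)2 buffer, was flowed over sequenced MiSeq chips carrying barcoded ribozyme variants transcribed in situ by E. coli RNA polymerase. A hybridised Cy3 probe tracked the variants at 37 °C as tiles were imaged over ~14 h. kobs, kcat and KM were obtained by fitting normalised per-tile medians to exponential decays and then applying weighted Michaelis–Menten fits across concentrations.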
# [2] = variants of: B1; assay: self-cleavage kobs at 160 uM GlcN6P; higher = faster cleavage; RNA array
# Summary of the method: as §1
# [3] = variants of: B1; assay: self-cleavage kobs at 2500 uM GlcN6P; higher = faster cleavage; RNA array
# Summary of the method: as §1
# [4] = variants of: B1; assay: self-cleavage kobs at 10000 uM GlcN6P; higher = faster cleavage; RNA array
# Summary of the method: as §1
# [5] = variants of: B1; assay: self-cleavage kobs at 640 uM GlcN6P; higher = faster cleavage; RNA array
# Summary of the method: as §1
# [6] = variants of: B1; assay: kcat; higher = faster cleavage; RNA array
# Summary of the method: as §1
# [7] = variants of: B1; assay: KM; higher = weaker cofactor use; RNA array
# Summary of the method: as §1
Variant,self-cleavage kobs at 40 uM GlcN6P [1],self-cleavage kobs at 160 uM GlcN6P [2],self-cleavage kobs at 2500 uM GlcN6P [3],self-cleavage kobs at 10000 uM GlcN6P [4],self-cleavage kobs at 640 uM GlcN6P [5],kcat [6],KM [7]
G7U G59U,< 1e-05 s⁻¹,< 1e-05 s⁻¹,< 1e-05 s⁻¹,< 1e-05 s⁻¹,,,
G7C C11U G40U C71A,< 1e-05 s⁻¹,,< 1e-05 s⁻¹,< 1e-05 s⁻¹,< 1e-05 s⁻¹,,
G7C U47C A64U,< 1e-05 s⁻¹,,,< 1e-05 s⁻¹,,,
G7A A12U A52U,< 1e-05 s⁻¹,,,,,,
G7A C11G U69A,0.000101 ± 2.8e-05 s⁻¹,,,,,,
G7U U31C C68G,0.000102 ± 3.2e-05 s⁻¹,,,,,,
A6U C8A,< 1e-05 s⁻¹,< 1e-05 s⁻¹,< 1e-05 s⁻¹,< 1e-05 s⁻¹,,,
A6C A33G,< 1e-05 s⁻¹,,,< 1e-05 s⁻¹,< 1e-05 s⁻¹,,
A6C C61U,< 1e-05 s⁻¹,< 1e-05 s⁻¹,,< 1e-05 s⁻¹,,,
C8A G35C C67A,< 1e-05 s⁻¹,< 1e-05 s⁻¹,,,< 1e-05 s⁻¹,,
G66C C70G,,3.35e-05 ± 1.2e-05 s⁻¹,9.88e-05 ± 1.2e-05 s⁻¹,0.000111 ± 1.5e-05 s⁻¹,6.38e-05 ± 8.2e-06 s⁻¹,0.000116 ± 4e-06 s⁻¹,490 ± 56 µM
C8A U69G,8.97e-05 ± 2.7e-05 s⁻¹,,0.000592 ± 0.00028 s⁻¹,0.000773 ± 0.00027 s⁻¹,0.000846 ± 0.00027 s⁻¹,,
A6G G29C U45G C70G,< 1e-05 s⁻¹,,,,,,
A6G U31A G44U C67G,< 1e-05 s⁻¹,,,,< 1e-05 s⁻¹,,
C67G C70U,,,9.79e-05 ± 8.3e-06 s⁻¹,0.000137 ± 8.4e-06 s⁻¹,4.24e-05 ± 6e-06 s⁻¹,0.000163 ± 2.9e-06 s⁻¹,1750 ± 88 µM
C8A C58G,< 1e-05 s⁻¹,< 1e-05 s⁻¹,,,< 1e-05 s⁻¹,,
A6C G37A G41A A42U,< 1e-05 s⁻¹,,,< 1e-05 s⁻¹,,,
C8G A14G U55G,< 1e-05 s⁻¹,,< 1e-05 s⁻¹,< 1e-05 s⁻¹,,,
C8A G35C A48C G60A,< 1e-05 s⁻¹,,,,,,
C8A G29U U57A G62C C67U,< 1e-05 s⁻¹,,,,,,
C8G A12C U31C G32C,< 1e-05 s⁻¹,,,,,,
A6G G62C,< 1e-05 s⁻¹,< 1e-05 s⁻¹,< 1e-05 s⁻¹,< 1e-05 s⁻¹,< 1e-05 s⁻¹,,
C8G A15G,< 1e-05 s⁻¹,< 1e-05 s⁻¹,< 1e-05 s⁻¹,< 1e-05 s⁻¹,< 1e-05 s⁻¹,,

Variant,self-cleavage kobs at 40 uM GlcN6P [1],self-cleavage kobs at 160 uM GlcN6P [2],self-cleavage kobs at 2500 uM GlcN6P [3],self-cleavage kobs at 10000 uM GlcN6P [4],self-cleavage kobs at 640 uM GlcN6P [5],kcat [6],KM [7]
G7C G38U,< 1e-05 s⁻¹,< 1e-05 s⁻¹,,< 1e-05 s⁻¹,< 1e-05 s⁻¹,,
C67U C70G,,,2.88e-05 ± 6.7e-06 s⁻¹,,2.59e-05 ± 9e-06 s⁻¹,2.32e-05 ± 6.8e-06 s⁻¹,
A6G A15C C70A,< 1e-05 s⁻¹,,,,,,
G7A U56C C67U C68U,< 1e-05 s⁻¹,< 1e-05 s⁻¹,,,< 1e-05 s⁻¹,,
C8A A14G U57C,< 1e-05 s⁻¹,,< 1e-05 s⁻¹,,< 1e-05 s⁻¹,,
C8G A48U C71G,< 1e-05 s⁻¹,,,< 1e-05 s⁻¹,,,
C8A G37A,< 1e-05 s⁻¹,,,< 1e-05 s⁻¹,,,
G7C G62U,< 1e-05 s⁻¹,,< 1e-05 s⁻¹,< 1e-05 s⁻¹,,,
C8A A36C,< 1e-05 s⁻¹,< 1e-05 s⁻¹,< 1e-05 s⁻¹,< 1e-05 s⁻¹,,,
C8A A36G,< 1e-05 s⁻¹,< 1e-05 s⁻¹,< 1e-05 s⁻¹,< 1e-05 s⁻¹,< 1e-05 s⁻¹,,
G7C G37U U47C G59U G66U C70U,< 1e-05 s⁻¹,< 1e-05 s⁻¹,,< 1e-05 s⁻¹,,,
G7C A12G C67A,< 1e-05 s⁻¹,,,< 1e-05 s⁻¹,,,
A6G C70U,< 1e-05 s⁻¹,< 1e-05 s⁻¹,,,,,
A6G G38U U54C,< 1e-05 s⁻¹,,< 1e-05 s⁻¹,,< 1e-05 s⁻¹,,
A6U A48G,< 1e-05 s⁻¹,< 1e-05 s⁻¹,< 1e-05 s⁻¹,< 1e-05 s⁻¹,,,
A6G U56A U65C,< 1e-05 s⁻¹,,,,,,
A6U C11G U46G C68A,< 1e-05 s⁻¹,,< 1e-05 s⁻¹,,< 1e-05 s⁻¹,,
C8A G66C,< 1e-05 s⁻¹,,< 1e-05 s⁻¹,,,,
A6U G32C,< 1e-05 s⁻¹,< 1e-05 s⁻¹,< 1e-05 s⁻¹,,< 1e-05 s⁻¹,,
U69A C71G,,,4.01e-05 ± 9.2e-06 s⁻¹,,5.27e-05 ± 1.5e-05 s⁻¹,3.77e-05 ± 9.7e-06 s⁻¹,
G7A A14C G32U G40A,< 1e-05 s⁻¹,,< 1e-05 s⁻¹,,,,
G7C C34G,< 1e-05 s⁻¹,< 1e-05 s⁻¹,< 1e-05 s⁻¹,< 1e-05 s⁻¹,< 1e-05 s⁻¹,,
U2G A33G,< 1e-05 s⁻¹,,,< 1e-05 s⁻¹,,,
